According to patent US20210138058A1:

Target: human TLR5 (HEK-Blue hTLR5 reporter cells) (human) (UniProt O60602)
Assay: cell-based or functional assay

Sequence of UniProt O60602 (O60602 21-858): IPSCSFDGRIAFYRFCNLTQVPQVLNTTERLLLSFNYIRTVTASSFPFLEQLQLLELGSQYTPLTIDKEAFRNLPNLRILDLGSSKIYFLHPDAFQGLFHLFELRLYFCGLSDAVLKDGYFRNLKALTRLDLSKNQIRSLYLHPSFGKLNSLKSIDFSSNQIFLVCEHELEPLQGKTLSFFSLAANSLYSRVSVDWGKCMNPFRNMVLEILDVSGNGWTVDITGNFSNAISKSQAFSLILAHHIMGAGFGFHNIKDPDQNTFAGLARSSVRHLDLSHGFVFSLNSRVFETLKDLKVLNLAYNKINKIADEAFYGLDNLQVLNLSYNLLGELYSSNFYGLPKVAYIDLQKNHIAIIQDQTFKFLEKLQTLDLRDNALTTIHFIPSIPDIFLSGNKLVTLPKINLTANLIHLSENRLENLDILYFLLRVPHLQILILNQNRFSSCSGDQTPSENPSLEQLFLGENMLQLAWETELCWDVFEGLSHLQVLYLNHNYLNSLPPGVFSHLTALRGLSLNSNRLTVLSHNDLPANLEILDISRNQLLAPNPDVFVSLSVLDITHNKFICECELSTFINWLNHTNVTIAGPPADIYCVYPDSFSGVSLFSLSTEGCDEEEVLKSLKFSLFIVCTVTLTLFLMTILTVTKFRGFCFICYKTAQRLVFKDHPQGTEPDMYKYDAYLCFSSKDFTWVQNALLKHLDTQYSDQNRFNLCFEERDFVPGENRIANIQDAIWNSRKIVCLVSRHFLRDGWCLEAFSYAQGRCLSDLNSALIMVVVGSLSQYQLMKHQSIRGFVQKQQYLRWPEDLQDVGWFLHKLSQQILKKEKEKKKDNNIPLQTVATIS

Recombinant purified flagellin protein FlaAMRx0518 (Enterococcus gallinarum MRx0518 flagellin, N-terminal 6xHis tag) (ligand)
potency of TLR5 response against FlaADSM100110 (HEK-Blue hTLR5 SEAP reporter) (fold against FlaADSM100110): 5
